The text below walks through data of article PMC4463592.

Data set [1] deals with preKARS2 (precursor of mitochondrial lysyl-tRNA synthetase) (Homo sapiens). Briefly: EMSA, Scatchard. Conditions: no enolase; 0.5 uM preKARS2 (Methods print 0.5 mM); none (unmodified transcript); 20 mM Tris-HCl pH 7.5, 150 mM NaCl, 10 mM MgCl2, 5 mM DTT, 10% glycerol, 0.1 mg/mL BSA, 30 C 15 min; native 8% PAGE in 0.5x Tris-borate pH 8.3, 5% glycerol. Background: In EMSA bound probe runs differently from free probe, usually more slowly.

Data set [2] has as its system human enolase gamma (ENO2, neuronal) (Homo sapiens). Briefly: EMSA. As to conditions: apparent Kd, one value given for all three isoforms; none (unmodified transcript); 20 mM Tris-HCl pH 7.5, 150 mM NaCl, 10 mM MgCl2, 5 mM DTT, 10% glycerol, 0.1 mg/mL BSA, 30 C 15 min; native 8% PAGE in 0.5x Tris-borate pH 8.3, 5% glycerol.
For data set [3], the system named is human enolase beta (ENO3, muscle) (Homo sapiens). Briefly: EMSA. As to conditions: apparent Kd, one value given for all three isoforms; none (unmodified transcript); 20 mM Tris-HCl pH 7.5, 150 mM NaCl, 10 mM MgCl2, 5 mM DTT, 10% glycerol, 0.1 mg/mL BSA, 30 C 15 min; native 8% PAGE in 0.5x Tris-borate pH 8.3, 5% glycerol.
For data set [4], the system named is human enolase alpha (ENO1) (Homo sapiens). Briefly: EMSA. As to conditions: apparent Kd, one value given for all three isoforms; none (unmodified transcript); 20 mM Tris-HCl pH 7.5, 150 mM NaCl, 10 mM MgCl2, 5 mM DTT, 10% glycerol, 0.1 mg/mL BSA, 30 C 15 min; native 8% PAGE in 0.5x Tris-borate pH 8.3, 5% glycerol.
Data set [5] deals with preKARS2 (precursor of mitochondrial lysyl-tRNA synthetase) (Homo sapiens). Briefly: EMSA. Conditions: apparent Kd with human enolase gamma present; no ternary complex detected; none (unmodified transcript); 20 mM Tris-HCl pH 7.5, 150 mM NaCl, 10 mM MgCl2, 5 mM DTT, 10% glycerol, 0.1 mg/mL BSA, 30 C 15 min; native 8% PAGE in 0.5x Tris-borate pH 8.3, 5% glycerol.

As to “tRK1 (yeast tRNALys acceptor 1) T7 transcript”, the Kd is 300 nM in data set [1]; 2000 nM in data set [2]; 2000 nM in data set [3]; 2000 nM in data set [4]; less than 20 nM in data set [5].
